Laboratory results as given in US20030054488A1 (published 2003).

Experiments:
[1] = target: the molecule itself; test: gel filtration HPLC and analytical ultracentrifugation (main population 310±10 kDa)
Description: FIG. 11. rGPBP and rGPBPΔ26 form very active high molecular weight aggregates. About 300 μg of rGPBP (A) or rGPBPΔ26 (B) were subjected to gel filtration HPLC as described under Material and Methods. Vertical arrowheads and numbers respectively indicate the elution profile and molecular mass (kDa) of the molecular weight standards used. Larger aggregates eluted in the void volume (I), and the bulk of the material present in the samples eluted in the fractionation range of the column as a second peak between the 669 and 158 kDa markers (II). Fifteen microliters of the indicated minute fractions were subjected to SDS-PAGE and Coomasie blue staining. Five microliters of the same fractions were in vitro phosphorylated as described in Materials and Methods, and the reaction stopped by boiling in SDS sample buffer. […]
Gel-filtration HPLC. […] The material was eluted from the column at 0.5 ml/min, monitored at 220 nm and minute fractions collected.
rGPBP and rGPBP-26 exist as very active high molecular weight aggregates. Gel filtration analysis of affinity-purified rGPBP or rGPBPΔ26 yielded two chromatographic peaks (I and II), both displaying higher MW than expected for the individual molecular species, as determined by SDS-PAGE studies (89 kDa and 84 kDa, respectively ) (FIG. 11). […] ATP, and analyzed by immunoblot and autoradiography.

[2] = target: T1, GPpep1
T1 chain: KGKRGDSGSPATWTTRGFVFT

B1: FLAG-tagged recombinant GPBPΔ26 (rGPBPΔ26) (enzyme)
chain: DYKDDDDKMSDNQSWNSSGSEEDPETESGPPVERCGVLSKWTNYIHGWQDRWVVLKNNALSYYKSEDETEYGCRGSICLSKAVITPHDFDECRFDISVNDSVWYLRAQDPDHRQQWIDAIEQHKTESGYGSESSLRRHGSMVSLVSGASGYSATSTSSFKKGHSLREKLAEMETFRDILCRQVDTLQKYFDACADAVSKDELQRDKVVEDDEDDFPTTRSDGDFLHSTNGNKEKLFPHVTPKGINGIDFKGEAITFKATTAGILATLSHCIELMVKREDSWQKRLDKETEKKRRTEEAYKNAMTELKKKSHFGGPDYEEGPNSLINEEEFFDAVEAALDRQDKIEEQSQSEKVRLHWPTSLPSGDAFSSVGTHRFVQKVEEMVQNHMTYSLQDVGGDANWQLVVEEGEMKVYRREVEENGIVLDPLKATHAVKGVTGHEVCNYFWNVDVRNDWETTIENFHVVETLADNAIIIYQTHKRVWPASQRDVLYLSVIRKIPALTENDPETWIVCNFSVDHDSAPLNNRCVRAKINVAMICQTLVSPPEGNQEISRDNILCKITYVANVNPGGWAPASVLRAVAKREYPKFLKRFTSYVQEKTAGKPILF
notes: From pHIL-FLAG-n4'Δ26 in Pichia pastoris, made by deleting the 78-bp exon from pHIL-FLAG-n4'
With B1 the binding result [1] was “binds” and the “trans-phosphorylation activity with GPpep1” value [2] was “the reduced in-solution auto- and trans-phosphorylation activities displayed by rGPBPΔ26”.
